Test results from publication PMC5378893 (Scientific Reports, 2015).

biological target: T1, extracellular domain (ECD) of human epidermal growth factor receptor 2 (HER2) (Homo sapiens, UniProt P04626); assay: SPR; BIAcore T200; HER2/ECD immobilised on a CM5 chip by amine coupling to 1000 RU; IgG flowed in PBST (0.05% Tween 20) at 30 uL/min; regeneration 10 mM glycine pH 1.5; global fit to a 1:1 binding model; conditions: both partners purified
T1 construct: human epidermal growth factor receptor 2 (HER2), extracellular domain; also called HER2/ECD

Row | Binder | Kd | koff | kon
1 | GH2-3 IgG (antibody, V domains shown, source: HEK293-F, transient transfection, purified (Protein A, Superdex 200)) VH: EVQLVESGGGLVQPGGSLRLSCAASGFTISGGWIHWVRQAPGKGLEWVAGIWPSGGSTSYADSVKGRFTISADTSKNTAYLQMNSLRAEDTAVYYCARFYFGFGDLMDYWGQGTLVTVSS VL: DIQMTQSPSSLSASVGDRVTITCRASQDVNNNVAWYQQKPGKAPKLLIYGARYLYSGVPSRFSGSGSGTDFTLTISSLQPEDFATYYCQQFGGGPLTFGQGTKVEIK | 2.07 nM | 0.000502 s⁻¹ | 242000 M⁻¹ s⁻¹
2 | GH2-16 IgG (antibody, V domains shown, source: HEK293-F, transient transfection, purified (Protein A, Superdex 200)) VH: EVQLVESGGGLVQPGGSLRLSCAASGFTINNWGIHWVRQAPGKGLEWVAGIWPFGGYTYYADSVKGRFTISADTSKNTAYLQMNSLRAEDTAVYYCARFDYLNNGGMDYWGQGTLVTVSS VL: DIQMTQSPSSLSASVGDRVTITCRASQDVYSSVAWYQQKPGKAPKLLISYTSYLYSGVPSRFSGSGSGTDFTLTISSLQPEDFATYYCQQYYGGPMTFGQGTKVEIK | 1.2 nM | 0.000102 s⁻¹ | 85700 M⁻¹ s⁻¹
3 | M32 IgG (mouse anti-HER2/ECD) (antibody, V domains shown, mouse VL; L49~L53 YSASN; L91~L96 YSSYPL; mouse VH; H50~H58 WIDPENGNTI; H96~H100B YYGSRVL; recombinant IgG from a scFv of an immunized mouse's phage library; source: HEK293-F, transient transfection, purified (Protein A, Superdex 200)) VH: EVQLVESGAELVRPGALVKLSCKASGFNIKDYFMYWVKQRPEQGLEWVGWIDPENGNTIYDPKFQGKASITADTSSNTAYLQLSSLTSEDTAVYYCTRGYYGSRVLAMDYWGQGTSVTVSS VL: GIELTQSQKFMSTSVGDRVSITCKASQNVGTAVAWYQQKPGQSPKLLIYSASNRYTGVPDRFTGSGSGTDFTLTISNMQSEDLADYFCQQYSSYPLAFGGGTKLEIK | 0.243 nM | 7.15e-05 s⁻¹ | 294000 M⁻¹ s⁻¹
4 | M41 IgG (mouse anti-HER2/ECD) (antibody, V domains shown, mouse VL; L49~L53 YYTSG; L91~L96 VNTLPY; mouse VH; H50~H58 NFHPYNDYTN; H96~H100B HDGYYGA; recombinant IgG from a scFv of an immunized mouse's phage library; source: HEK293-F, transient transfection, purified (Protein A, Superdex 200)) VH: EVQLQQSGAELVKPGASVKMSCKAFGYTFTTYPIEWMKQNHGKSLEWIGNFHPYNDYTNYNEKFKGKAKLTVEKSSTTVYLELSRLTSDDSAVYYCARRHDGYYGAMDYWGQGTSVTVSS VL: DIQMTQTTSSLSASLGDRVTISCRTSQDISNYLNWYQQKPNGTIKLLIYYTSGLYSGVPSRFSGSGSGADYSLTISNVEQEDIATYFCQQVNTLPYTFGGGTKLELK | 0.0519 nM | 3.48e-05 s⁻¹ | 671000 M⁻¹ s⁻¹
5 | M61 IgG (mouse anti-HER2/ECD) (antibody, V domains shown, mouse VL; L49~L53 YNAKT; L91~L96 HYGTPY; mouse VH; H50~H58 NFHPYNDDTK; H96~H100B NDGYYGA; recombinant IgG from a scFv of an immunized mouse's phage library; source: HEK293-F, transient transfection, purified (Protein A, Superdex 200)) VH: EVQLQQSGAELVKPGASVKMSCKAFGYTFTTYPIEWMKQNHGKSLEWIGNFHPYNDDTKYNEKFKGKAKLTVEKSSSTVYLELSRLTSDDSAVYYCARRNDGYYGAMDYWGQGTSVTVSS VL: DIKITQSPASLSASVGETVTITCRASENIYSYLAWYQQKQGKSPQLLVYNAKTLAEGVPSRFSGSGSGTQFSLKINSLQPEDFGSYYCQHHYGTPYTFGGGTKLELK | 0.591 nM | 0.0024 s⁻¹ | 4.06e+06 M⁻¹ s⁻¹
6 | GH2-23 IgG (antibody, V domains shown, source: HEK293-F, transient transfection, purified (Protein A, Superdex 200)) VH: EVQLVESGGGLVQPGGSLRLSCAASGFTINGGGIHWVRQAPGKGLEWVAFIGPFGGSTFYADSVKGRFTISADTSKNTAYLQMNSLRAEDTAVYYCARFFGGNIHVMDYWGQGTLVTVSS VL: DIQMTQSPSSLSASVGDRVTITCRASQDVFWGVAWYQQKPGKAPKLLISWSASLYSGVPSRFSGSGSGTDFTLTISSLQPEDFATYYCQQYFSFPFTFGQGTKVEIK | 0.827 nM | 0.00018 s⁻¹ | 217000 M⁻¹ s⁻¹
7 | M62 IgG (mouse anti-HER2/ECD) (antibody, V domains shown, mouse VL; L49~L53 HSASY; L91~L96 YNSYPL; mouse VH; H50~H58 EIYPGGGNPY; H96~H100B YKYDVS; recombinant IgG from a scFv of an immunized mouse's phage library; source: HEK293-F, transient transfection, purified (Protein A, Superdex 200)) VH: EVQLQQSGTELARPGASVKLSCKASGYTFIDYYITWVKQRTGQGLEWIGEIYPGGGNPYYNDNFKGKASLTADKSSNTVYMQLSSLTSEDSAVYFCARSYKYDVSVYWGQGTLVTVSA VL: DIQMIQSQKFMSTSVGDRVSVTCKASQNVGTNVAWYQQKPGQSPKALIHSASYRYSGVPDRFTGSGSGTDFTLTISNVQSEDLAEYFCQQYNSYPLTFGAGTKLEIK | 0.0228 nM | 1.8e-05 s⁻¹ | 788000 M⁻¹ s⁻¹
8 | GH2-95 IgG (antibody, V domains shown, source: HEK293-F, transient transfection, purified (Protein A, Superdex 200)) VH: EVQLVESGGGLVQPGGSLRLSCAASGFTIDSWGIHWVRQAPGKGLEWVAGIGPFWGYTSYADSVKGRFTISADTSKNTAYLQMNSLRAEDTAVYYCARFGIHFDGIMDYWGQGTLVTVSS VL: DIQMTQSPSSLSASVGDRVTITCRASQDVSGGVAWYQQKPGKAPKLLIFGSTWLYSGVPLRFSGSGSGTDFTLTISSLQPEDFATYYCQQYYDWPLTFGQGTKVEIK | 4.47 nM | 0.000244 s⁻¹ | 54700 M⁻¹ s⁻¹
9 | GH2-104 IgG (antibody, V domains shown, source: HEK293-F, transient transfection, purified (Protein A, Superdex 200)) VH: EVQLVESGGGLVQPGGSLRLSCAASGFTIDSWGIHWVRQAPGKGLEWVAGIGPFGGYTSYADSVKGRFTISADTSKNTAYLQMNSLRAEDTAVYYCARFGDYIDGVMDYWGQGTLVTVSS VL: DIQMTQSPSSLSASVGDRVTITCRASQDVNSNVAWYQQKPGKAPKLLIYGSPSLYSGVPSRFSGSGSGTDFTLTISSLQPEDFATYYCQQYYDWPLTFGQGTKVEIK | 1.04 nM | 0.000884 s⁻¹ | 852000 M⁻¹ s⁻¹
10 | GH2-98 IgG (antibody, V domains shown, source: HEK293-F, transient transfection, purified (Protein A, Superdex 200)) VH: EVQLVESGGGLVQPGGSLRLSCAASGFTINNYGIHWVRQAPGKGLEWVAGIGPSWGFTYYADSVKGRFTISADTSKNTAYLQMNSLRAEDTAVYYCARFGFYNDGFMDYWGQGTLVTVSS VL: DIQMTQSPSSLSASVGDRVTITCRASQDVGSGVAWYQQKPGKAPKLLIYFSASLYSGVPSRFSGSGSGTDFTLTISSLQPEDFATYYCQQYYNWPLTFGQGTKVEIK | 88.5 nM | 0.0224 s⁻¹ | 254000 M⁻¹ s⁻¹
11 | GH2-36 IgG (antibody, V domains shown, source: HEK293-F, transient transfection, purified (Protein A, Superdex 200)) VH: EVQLVESGGGLVQPGGSLRLSCAASGFTIGGGGIHWVRQAPGKGLEWVAYIGPYGGYTSYADSVKGRFTISADTSKNTAYLQMNSLRAEDTAVYYCARFHDHIGGIMDYWGQGTLVTVSS VL: DIQMTQSPSSLSASVGDRVTITCRASQDVNSNVAWYQQEPGKAPKLLIYFSSGLYSGVPSRFSGSGSGTDFTLTISSLQPEDFATYYCQQYYNWPLTFGQGTKVEIK | 8.85 nM | 7.7 s⁻¹ | 8.68e+08 M⁻¹ s⁻¹
12 | M64 IgG (mouse anti-HER2/ECD) (antibody, V domains shown, mouse VL; L49~L53 YWAST; L91~L96 HYSTPY; mouse VH; H50~H58 RIDPANGNTK; H96~H100B YRGAM; recombinant IgG from a scFv of an immunized mouse's phage library; source: HEK293-F, transient transfection, purified (Protein A, Superdex 200)) VH: EVQLQQSGAELVKPGASVKLSCTASGFNIKNTYMHWVKQRPEQGLEWIGRIDPANGNTKYDPKLQGKATITADTSSNTAYLHLSSLTSEDTAVYYCVPYYRGAMDYWGQGTSVTVSS VL: DIQMNQSHKFMSTSVGDRVSITCKASQDVSTAVAWYQQKPGQSPKLLIYWASTRHTGVPGRFTGSGSGADYTLTISSVQAEDLALYYCQQHYSTPYTFGGGTKLEIK | 0.195 nM | 0.000337 s⁻¹ | 1.74e+06 M⁻¹ s⁻¹
13 | GH2-8 IgG (antibody, V domains shown, source: HEK293-F, transient transfection, purified (Protein A, Superdex 200)) VH: GVQLVESGGGLVQPGGSLRLSCAASGFTIGSSGIHWVRQAPGKGLEWVAGIWPYWGSTYYADSVKGRFTISADTSKNTAYLQMNSLRAEDTAVYYCARFGVGYHYYMDYWGQGTLVTVSS VL: DIQMTQSPSSLSASVGDRVTITCRASQDVGWWVAWYQQKPGKAPKLLISGATGLYSGVPSRFSGSGSGTDFTLTISSLQPEDFATYYCQQSWDSPITFGQGTKVEIK | 0.259 nM | 0.000155 s⁻¹ | 599000 M⁻¹ s⁻¹
14 | GH2-102 IgG (antibody, V domains shown, source: HEK293-F, transient transfection, purified (Protein A, Superdex 200)) VH: EVQLVESGGGLVQPGGSLRLSCAASGFTINGGGIHWVRQAPGKGLEWVASIGPYGGYTSYADSVKGRFTISADTSKNTAYLQMNSLRAGDTAVYYCARFGHHYDGHMDYWGQGTLVTVSS VL: DIQMTQSPSSLSASVGDRVTITCRASQDVGSNVAWYQQKPGKAPKLLIYGAPYLYSGVPSRFSGSGSGTDFTLTISSLQPEDFATYYCQQYYNWPLTFGQGTKVEIK | 28.4 nM | 0.039 s⁻¹ | 1.37e+06 M⁻¹ s⁻¹
15 | GH2-96 IgG (antibody, V domains shown, source: HEK293-F, transient transfection, purified (Protein A, Superdex 200)) VH: EVQLVESGGGLVQPGGSLRLSCAASGFTISGYGIHWVRQAPGKGLEWVAGIGPFWGYTFYADSVKGRFTISADTSKNTAYLQMNSLRAEDTAVYYCARFGHIVDGLMDYWGQGTLVTVSS VL: DIQMTQSPSSLSASVGDRVTITCRASQDVNGGVAWYQQKPGKAPKLLIYGSSWLYSGVPSRFSGSGSGTDFTLTISSLQPEDFATYYCQQYFDWPITFGQGTKVEIK | 5.42 nM | 0.00137 s⁻¹ | 254000 M⁻¹ s⁻¹
16 | GH2-18 IgG (antibody, V domains shown, source: HEK293-F, transient transfection, purified (Protein A, Superdex 200)) VH: EVQLVESGGGLVQPGGSLRLSCAASGFTISNWGIHWVRQAPGKGLEWVAGIWPYGGYTFYADSVKGRFTISADTSKNTAYLQMNSLRAEDTAVYYCARFNYLNLGGMDYWGQGTLVTVSS VL: DIQMTQSPSSLSASVGDRVTITCRASQDVNSNVAWYQQKPGKAPKLLIYWTTGLYSGVPSRFSGSGSGTDFTLTISSLQPEDFATYYCQQYLSGPITFGQGTKVEIK | 0.0695 nM | 1.09e-05 s⁻¹ | 156000 M⁻¹ s⁻¹
17 | GH2-14 IgG (antibody, V domains shown, source: HEK293-F, transient transfection, purified (Protein A, Superdex 200)) VH: EVQLVESGGGLVQPGGSLRLSCAASGFTINDHGIHWVRQAPGKGLEWVAGIGPFGGYTSYADSVKGRFTISADTSKNTAYLQMNSLRAEDTAVYYCARFNFNDVGGMDYWGQGTLVTVSS VL: DIQMTQSPSSLSASVGDRVTITCRASQDVGGGVAWYQQKPGKAPKLLISGPPYLYSGVPSRFSGSGSGTDFTLTISSLQPEDFATYYCQQYFNYPITFGQGTKVEIK | 17 nM | 0.00573 s⁻¹ | 336000 M⁻¹ s⁻¹
18 | GH2-13 IgG (antibody, V domains shown, source: HEK293-F, transient transfection, purified (Protein A, Superdex 200)) VH: EVQLVESGGGLVQPGGSLRLSCAASGFTISDGGIHWVRQAPGKGLEWVAGIWPYWGYTSYADSVKGRFTISADTSKNTAYLQMNSLRAEDTAVYYCARFDNNWVGNMDYWGQGTLVTVSS VL: DIQMTQSPSSLSASVGDRVTITCRASQDVYFGVAWYQQKPGKAPKLLISGTTSLYSGVPSRFSGSGSGTDFTLTISSLQPEDFATYYCQQYGSYPITFGQGTKVEIK | 2.64 nM | 0.00818 s⁻¹ | 3.1e+06 M⁻¹ s⁻¹
19 | GH2-21 IgG (antibody, V domains shown, source: HEK293-F, transient transfection, purified (Protein A, Superdex 200)) VH: EVQLVESGGGLVQPGGSLRLSCAASGFTINDYSIHWVRQAPGKGLEWVASIWPFGGSTSYADSVKGRFTISADTSKNTAYLQMNSLRAEDTAVYYCARFNYWIGIIMDYWGQGTLVTVSS VL: DIQMTQSPSSLSASVGDRVTITCRASQDVSDNVAWYQQKPGKAPKLLIYWATGLYSGVPSRFSGSGSGTDFTLTISSLQPEDFATYYCQQYYGFPLTFGQGTKVEIK | 1.4 nM | 0.000623 s⁻¹ | 444000 M⁻¹ s⁻¹
